# Marks after values point to notes of the source that are not given here.
# Key:
# [1] = molecular target: T1, SNAP-CXCR4 (Homo sapiens, UniProt P61073); conditions: 10 μM AMD3100 (Figure S1)
# From the text: Data are mean ± SEM from triplicate determinations in a single experiment. This single
# Data are mean ± SEM from triplicate determinations in a single experiment.
# [2] = test system: T2, endogenous, untagged CXCR4; assay: Nanobody displacement assay in Jurkat T cells (endogenous CXCR4); assay type: binding, human; conditions: 100 nM VUN400-HiBiT with competing ligand 2 h, washed, exogenous LgBiT added, p < 0.05
# T2 construct: these cells express high levels of CXCR4 endogenously; host or cells: Jurkat T cells (clone E6-1)
# Procedure: Nanobody displacement assays in T-cells were performed by seeding 100,000 Jurkat cells per well into V-bottom 96-well plates in 100μl warm HBSS. Cells were treated with 100 nM VUN400-HiBiT and competing ligands simultaneously and incubated for 2 hours at 37°C. The cells were pelleted by centrifugation at 300g for 5 minutes and the supernatant removed and replaced with 200 μl fresh HBSS. Cells were resuspended via shaking at 1000 r.p.m on an orbital plate shaker for 2 minutes. This wash step was repeated two more times to remove unbound VUN400-HiBiT. The cells were treated with 20 nM exogenous LgBiT and furimazine (1:400 final concentration) and transferred to white 96-well plates and luminescence read using a PHERAstar FS plate reader.
# [3] = molecular target: T3, LgBiT-CXCR4 (Homo sapiens, UniProt P61073); assay: NanoBiT nanobody displacement binding assay, whole HEK293 cells expressing LgBiT-CXCR4
# T3 construct: GSSG linker and TEV recognition site (EDLYFQS), between LgBiT and CXCR4 (N); expressed in transfected cells; whole cells in A1-A4, isolated membranes in A9/A10
# Procedure: (§1) Full nanobody displacement assays were performed in HEK293 cells stably expressing either the LgBiT-CXCR4 or SNAP-CXCR4 constructs. Cells (30,000 per well) were plated in white 96-well poly-D-lysine coated plates as described above. After 24 hours, media was removed and replaced with 100 μl HBSS. Increasing concentrations of displacing ligands were added to the cells. […] The cells were incubated at 37°C for 2 and a half hours in total. […] Furimazine (1:400 final concentration) was added to each well and the plate was incubated for a further 15 minutes at 37°C. Luminescence was measured using the PHERAstar FS plate reader.
# [4] = molecular target: T3, LgBiT-CXCR4; assay: NanoBiT saturation binding (complemented luminescence) in HEK293 cells stably expressing LgBiT-CXCR4; conditions: fixed concentration: 100 nM CXCL12, 10 μM AMD3100 or 10 μM IT1t (Figure 3E)
# Procedure: Saturation binding with VUN400-HiBiT was performed on HEK 293 cells stably expressing the LgBiT-CXCR4 receptor. Cells were plated at 30,000 cells/well in white 96-well plates previously coated with poly-D-lysine (10 μg/ml in PBS) in 100 μl complete media (DMEM with 10% FCS). After 24 hours, the media was removed and replaced with 100 μl HBSS containing VUN400-HiBiT within the range of 4-500 nM. Where used, CXCL12, AMD3100 or IT1t were also added at this point. The plate was incubated for two hours at 37°C. Furimazine (1:400 final concentration) was added to each well and the plate was incubated for a further 15 minutes at 37°C. Luminescence was measured using the PHERAstar FS plate reader.
# Saturation binding curves of VUN400-HiBiT were fitted using the following equation: Specificbinding=Bmax×[B]/[B]+KD where Bmax is the maximal specific binding, [B] is the concentration of VUN400-HiBiT, and KD is the equilibrium dissociation constant (nM).
# [5] = molecular target: T1, SNAP-CXCR4; assay: NanoBiT nanobody displacement binding assay, whole HEK293 cells expressing SNAP-CXCR4 (exogenous LgBiT added after washing); set-up: expressed in transfected cells; host or cells: HEK293G cells stably expressing SNAP-CXCR4 (gift of Dr. J. Goulding, University of Nottingham)
# Procedure: as §1
# [6] = molecular target: T1, SNAP-CXCR4; assay: TR-FRET saturation ligand binding at SNAP-CXCR4; set-up: expressed in transfected cells; host or cells: HEK293G cells stably expressing SNAP-CXCR4 (gift of Dr. J. Goulding, University of Nottingham)
# From the text: Saturation binding of VUN400-HiBiT a t th e
# experiment is representative of five separate experiments.
# Supplementary Figure 2 (related to Figure 5).
# This single experiment is representative of five separate experiments.
# [7] = molecular target: T3, LgBiT-CXCR4; assay: NanoBRET saturation binding at complemented LgBiT-CXCR4 in HEK293 cells; conditions: non-specific binding defined with 10 μM AMD3100, 2 h 37°C
# Procedure: Saturation NanoBRET binding assays were performed on HEK 293 cells stably expressing the LgBiT-CXCR4 receptor. Cells were plated at 30,000 cells/well in white 96-well plates (Greiner) previously coated with 50 μl poly-D-lysine (mol wt: 70-150 kDa; 10 μg/ml in PBS) in 100 μl complete media (DMEM with 10% FCS). After 24 hours, the media was removed from each well and replaced with 100 μl HEPES-buffered saline solution (HBSS; 145 mM NaCl, 5 mM KCl, 1.3 mM CaCl2, 1 mM MgSO4, 10 mM HEPES, 2 mM sodium pyruvate, 1.5 mM NaHCO3, 10 mM D-glucose, pH 7.45) containing 10 nM purified HiBiT-HaloTag (Promega) and incubated at 37°C for 30 minutes. This was sufficient time for HiBiT-LgBiT complementation to occur, forming the fully complemented NanoLuc enzyme. The HBSS was then aspirated and the cells washed three times with 100 μl HBSS. […] Cells were incubated for 2 hours at 37°C in the dark. The NanoLuc substrate furimazine (Promega) was added to each well (1:400 final concentration) and allowed to equilibrate for 5 minutes at 37°C prior to reading. Luminescence signals were measured at two wavelengths using a PHERAstar FS plate reader (BMG Labtech, UK) at room temperature. Filtered light was simultaneously measured using 460 nm (80-nm bandpass) and >610 nm longpass filters. The resulting BRET ratio was calculated by dividing the >610 nm emission by the 460 nm emission.
# [8] = molecular target: T3, LgBiT-CXCR4; assay: CXCL12-AF647 dissociation kinetics (NanoBRET) at complemented LgBiT-CXCR4; assay type: binding
# Procedure: Nanobody and CXCL12-AF647 dissociation kinetic measurements were performed in membranes isolated from HEK293 LgBiT-CXCR4 cells. Briefly, 10 μg LgBiT-CXCR4 membranes were plated in white 96-well plates containing furimazine (1:400 final concentration) and incubated at 37°C for 10 minutes. […] Increasing concentrations of VUN400-HiBiT or CXCL12-AF647 were added to the wells and luminescence (VUN400-HiBiT) or the BRET ratio (CXCL12-AF647) were measured. […] The BRET ratio was calculated as described above. Both the BRET ratio and luminescence were measured using the PHERAstar FS plate reader.
# For nanobody dissociation experiments were fitted to the following mono-exponential decay equation: Y=(Y0−NS)^−k.t+NS where Y0 is the nanobody binding at the time of ligand addition (t0), NS is the nanobody bound at infinite time, and k is the rate constant of nanobody dissociation.
# [9] = molecular target: T4, LgBiT-tagged human CXCR4 receptor ( | human, UniProt P61073 2-352, CXCR4 portion only (initiator Met removed (so in the source)); this part carries VUN400, CXCL12, AMD3100 and IT1t binding. Left out: the 5-HT3A signal sequence (presumed cleaved), the N-terminal LgBiT report); assay: split reporter (BiFC, NanoBiT); association kinetics; increasing concentrations of HiBiT added to HEK293 cells stably expressing LgBiT-CXCR4 in HBSS with furimazine; luminescence over 60 minutes at 37°C; global fit of kon and koff, KD = koff/kon; conditions: one partner purified
# T4 chain: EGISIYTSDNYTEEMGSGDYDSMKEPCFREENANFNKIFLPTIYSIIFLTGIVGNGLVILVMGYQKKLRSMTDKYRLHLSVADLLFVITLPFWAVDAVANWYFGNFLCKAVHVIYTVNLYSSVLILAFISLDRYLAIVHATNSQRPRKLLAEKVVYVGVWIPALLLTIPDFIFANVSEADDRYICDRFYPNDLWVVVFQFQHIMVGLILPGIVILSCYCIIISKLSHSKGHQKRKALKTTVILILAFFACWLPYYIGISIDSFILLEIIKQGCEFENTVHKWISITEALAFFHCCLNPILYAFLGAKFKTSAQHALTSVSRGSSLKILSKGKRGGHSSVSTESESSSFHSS
# [10] = 20 nM VUN400-HiBiT, (a) pre-incubation with VUN400-HiBiT
# [11] = 20 nM VUN400-HiBiT, (b) simultaneous addition
# [12] = 20 nM VUN400-HiBiT, (c) pre-incubation with ligands
# [13] = 20 nM VUN400-HiBiT, (b) simultaneous addition, 2 h 37°C
# [14] = (c) pre-incubation with ligands 2 h 37°C, then 20 nM VUN400-HiBiT 30 min
# [15] = inhibition of 20 nM VUN400-HiBiT binding, (a) pre-incubation with VUN400-HiBiT 30 min, then ligand 2 h 37°C
# T1 sequence (P61073 whole entry): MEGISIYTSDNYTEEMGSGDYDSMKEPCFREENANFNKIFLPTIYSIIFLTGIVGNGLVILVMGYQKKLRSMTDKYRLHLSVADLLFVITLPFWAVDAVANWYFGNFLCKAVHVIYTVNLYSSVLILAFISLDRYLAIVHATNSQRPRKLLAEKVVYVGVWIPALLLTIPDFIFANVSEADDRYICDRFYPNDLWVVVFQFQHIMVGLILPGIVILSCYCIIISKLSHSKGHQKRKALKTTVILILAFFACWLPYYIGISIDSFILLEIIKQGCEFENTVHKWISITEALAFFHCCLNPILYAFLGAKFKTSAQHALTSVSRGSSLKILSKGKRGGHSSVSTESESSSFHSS
Molecule,displacement of VUN400-HiBiT from endogenous CXCR4 [2],"Maximum Inhibition (% 10 μM AMD3100) [3, 10] [% 10 μM AMD3100]","Maximum Inhibition (% 10 μM AMD3100) [3, 11] [% 10 μM AMD3100]","Maximum Inhibition (% 10 μM AMD3100) [3, 12]",prevention of VUN400-HiBiT binding to LgBiT-CXCR4 [4],"Maximum Inhibition (% 10 μM AMD3100) [5, 10] [% 10 μM AMD3100]","Maximum Inhibition (% 10 μM AMD3100) [5, 11] [% 10 μM AMD3100]","Maximum Inhibition (% 10 μM AMD3100) [5, 12]",also measured
c1cc(CN2CCCNCCNCCCNCC2)ccc1CN1CCCNCCNCCCNCC1 [AMD3100],displaced,100,100,100 % 10 μM AMD3100,prevented,100,100,100 % 10 μM AMD3100,effect on VUN400-HiBiT bioluminescence signal at SNAP-CXCR4 [1]: able to reduce the bioluminescence signals
"CC1(C)CN2C(CSC(=NC3CCCCC3)NC3CCCCC3)=CSC2=N1.Cl.Cl [IT1t, N,N’-Dicyclohexylcarbamimidothioic acid (5,6-dihydro-6,6-dimethylimidazo[2,1-b]thiazol-3-yl)methyl ester dihydrochloride]",displaced,104.4 ± 4.5,96.5 ± 0.4,79.9 ± 3.1 ^c % 10 μM AMD3100,prevented,107.1 ± 4.8,106.8 ± 11.5,102.3 ± 3.6 % 10 μM AMD3100,–
"CXCL12-AF647: fluorescently labeled CXCL12, fluorescent orthosteric agonist (Almac)",–,–,–,–,–,–,–,–,"pKD [6]: 7.99 ± 0.10; pKD [7]: 7.80 ± 0.08; koff ([8]; 10 nM CXCL12-AF647, after addition of 1 μM CXCL12): 0.00533 ± 0.0005 s⁻¹; koff ([8]; 10 nM CXCL12-AF647, after addition of 10 μM AMD3100): 0.007 ± 0.00067 s⁻¹"
"CXCL12: chemokine ligand, endogenous orthosteric agonist of CXCR4 (PeproTech)",displaced,98.2 ± 0.2,98.8 ± 0.3,111.5 ± 3.1 ^c % 10 μM AMD3100,prevented,93.3 ± 8.7,92.8 ± 6.7,67.7 ± 11.6 ^c % 10 μM AMD3100,"pIC50 (Mean ± SEM) [3, 13]: 8.74 ± 0.13; pIC50 (Mean ± SEM) [3, 14]: 9.03 ± 0.02; pIC50 (Mean ± SEM) [3, 15]: 8.82 ± 0.12; pIC50 (Mean ± SEM) [5, 13]: 8.05 ± 0.21 ^a; pIC50 (Mean ± SEM) [5, 14]: 8.05 ± 0.41; pIC50 (Mean ± SEM) [5, 15]: 8.14 ± 0.28 ^a"
VSGWRLFKKIS (Fusion protein of circa 34 kDa; also called HiBiT-HaloTag control protein; source: bought: Promega (Cat# N3010)) [purified HiBiT-HaloTag fusion protein],–,–,–,–,–,–,–,–,koff [9]: 0.00367 s⁻¹; kon [9]: 10000 M⁻¹ s⁻¹; pKD [9]: 6.43 ± 0.13
